Holding throughout (format): cell-based, murine
Assay [1] has as its system proliferating cell nuclear antigen (PCNA). Kind of assay: PCNA protein in proliferating C2C12 myoblasts (Western blot). To be noted: 0.1, 1, 10 μg/ml, 48 h, FIG. 7. On the procedure: Thus, a decrease in p21 protein expression may indicate an increased cell proliferation rate. PCNA is a positive marker of cell proliferation. It is a subunit of DNA polymerase-delta during DNA replication in the cell cycle. Higher level of PCNA protein expression is associated with higher number of cells entering the DNA replication phase of the cell cycle.
C2C12 myoblasts were seeded in 10 cm diameter tissue culture plates (Nunc, Roskilde, Denmark) at a cell density of 3000 cells per cm^2 in 10 ml of Dulbecco's modified Eagle's medium (DMEM, Invitrogen, California) supplemented with foetal bovine serum (FBS, 10% v/v, Invitrogen), penicillin (1×105 IU/l, Sigma, St Louis, Mo., USA) and streptomycin (100 mg/l, Sigma) buffered with NaHCO3 containing phenol red (7.22 nmol/l) as a pH indicator, and incubated overnight at 37° C. with 5% CO2. The medium was replaced with the test medium: DMEM with 10% FBS supplemented with, 0.1, 1 or 10 μg/ml oMSV65 (n=3). The plates were then incubated at 37° C. with 5% CO2 for 48 hours. Cells were removed from the plate by trypsin treatment, washed with phosphate buffered saline (PBS, Oxoid, UK) and resuspended in 100 μl of lysis buffer (10 mM Hepes pH 7.9, 1.5 mM MgCl2, 10 mM KCl, 0.5% NP40, one Complete protease inhibitor tablet [Roche Diagnostics, USA] per 50 ml buffer). […] Band intensities were measured with a GS800 densitometer (BioRad, USA).

In assay [2] the test system is developmental myosin heavy chain (dMHC). Kind of assay: Developmental myosin heavy chain (dMHC) protein in C2C12 myotubes (Western blot). As to conditions: FIG. 5. On the procedure:
(§1) To investigate whether roMSV65 regulates myoblast differentiation or myotube hypertrophy, C2C12 myoblast cultures were employed. Levels of well-established early and late molecular markers of myogenic differentiation like myogenin and dMHC were measured in the presence and absence of roMSV65 protein.
(§2) C2C12 myoblasts were seeded in 10 cm diameter tissue culture plates (Nunc, Roskilde, Denmark) at a cell density of 25,000 cells per cm^2 in 10 ml of Dulbecco's modified Eagle's medium (DMEM, Invitrogen, California) supplemented with foetal bovine serum (FBS, 10% v/v, Invitrogen), penicillin (1×10^5 IU/l, Sigma, St Louis, Mo., USA) and streptomycin (100 mg/I, Sigma) buffered with NaHCO3 containing phenol red (7.22 nmol/l) as a pH indicator, and incubated overnight at 37° C. with 5% CO2.
To study myoblast differentiation, the medium was replaced with the test medium: DMEM with 2% Horse Serum supplemented with 0, 0.1, 1 or 10 μg/ml roMSV65 in three replicates for each concentration (n=3). Plates were incubated at 37° C. with 5% CO2 for 72 hours.
Cells were removed from the plate by trypsin treatment, washed with phosphate buffered saline (PBS, Oxoid, UK) and resuspended in 200 μl of lysis buffer (10 mM Hepes pH 7.9, 1.5 mM MgCl2, 10 mM KCl, 0.5% NP40, one Complete protease inhibitor tablet [Roche Diagnostics, USA] per 50 ml buffer). The protein concentration was estimated using the bicinchoninic acid (BCA, Sigma, Missouri) protein assay. 20 μg of total protein was separated by SDS-PAGE (8% for MHC or 12% for myogenin) and transferred to nitrocellulose membrane by electroblotting. The blots were stained with Ponceau S stain to check equal loading. […] Band intensities were measured with a GS800 densitometer (Bio-Rad, CA).

For the next assay, the system named is myogenin. The experiment in a line: Myogenin protein in differentiating C2C12 myoblasts (Western blot). To be noted: 0, 0.1, 1, 10 μg/ml, 72 h in differentiation medium, FIG. 4. On the procedure: as §1, §2
To study myoblast differentiation, the medium was replaced with the test medium: DMEM with 2% Horse Serum supplemented with 0, 0.1, 1 or 10 μg/ml roMSV65 in three replicates for each concentration (n=3). […]
Cells were removed from the plate by trypsin treatment, washed with phosphate buffered saline (PBS, Oxoid, UK) and resuspended in 200 μl of lysis buffer (10 mM Hepes pH 7.9, 1.5 mM MgCl2, 10 mM KCl, 0.5% NP40, one Complete protease inhibitor tablet [Roche Diagnostics, USA] per 50 ml buffer). […] Band intensities were measured with a GS800 densitometer (Bio-Rad, CA).

B1: roMSV65: 65 amino acid C-terminal peptide of ovine MSV (SEQ ID NO: 49) expressed as recombinant protein in E. coli (protein)
chain: VHFYTPPYGQWIFHKERKIIFLEVYIQFCSILGEAVFKRQSKSIHFCQNFKIIACLCNTAAFRMK
modifications: Ovis aries
As to B1, the “PCNA protein levels in C2C12 myoblasts” value in assay [1] is “concentration-dependent increase in PCNA protein levels”. Further, the “increase in dMHC abundance compared to untreated controls” value in assay [2] (0.1 μg/ml roMSV65, 72 h) was determined as 18 fold; in assay [2] (1 μg/ml roMSV65, 72 h), 20 fold; in assay [2] (10 μg/ml roMSV65, 72 h), 2 fold. Besides, the “myogenin protein levels in C2C12 myotubes” value in the assay on myogenin is on record as “dose-dependently increases myogenin protein levels”.
